Measured values from ChEMBL document CHEMBL4007386, “Design, synthesis of allosteric peptide activator for human SIRT1 and its biological evaluation in cellular model of Alzheimer's disease” (Eur J Med Chem, 2017).

How the values were obtained:
Settings in all cases: Homo sapiens
[1] = compound: N=C(N)NCCC[C@H](NC(=O)[C@H](Cc1c[nH]c2ccccc12)NC(=O)[C@@H](N)CS)C(=O)O; assay: Allosteric activation of SIRT1 (unknown origin) expressed in bacterial expression system assessed as Vmax for substrate at 40 uM using Fluorophore labeled-Arg-His-Lys-Lys (Ac) as substrate incubated for 30 mins in presence of NAD+ by fluorimetric method (reference value: 1666.67 uM)
[2] = compound: N=C(N)NCCC[C@H](NC(=O)[C@H](Cc1c[nH]c2ccccc12)NC(=O)[C@@H](N)CS)C(=O)O; assay: Allosteric activation of SIRT1 (unknown origin) expressed in bacterial expression system assessed as Vmax for substrate at 80 uM using Fluorophore labeled-Arg-His-Lys-Lys (Ac) as substrate incubated for 30 mins in presence of NAD+ by fluorimetric method (reference value: 1666.67 uM)
[3] = compound: N=C(N)NCCC[C@H](NC(=O)[C@H](Cc1c[nH]c2ccccc12)NC(=O)[C@@H](N)CS)C(=O)O; assay: Allosteric activation of SIRT1 (unknown origin) expressed in bacterial expression system assessed as Vmax for substrate at 120 uM using Fluorophore labeled-Arg-His-Lys-Lys (Ac) as substrate incubated for 30 mins in presence of NAD+ by fluorimetric method (reference value: 1666.67 uM)
[4] = compound: N=C(N)NCCC[C@H](NC(=O)[C@H](Cc1c[nH]c2ccccc12)NC(=O)[C@@H](N)CS)C(=O)O; assay: Allosteric activation of SIRT1 (unknown origin) expressed in bacterial expression system assessed as Vmax for substrate at 160 uM using Fluorophore labeled-Arg-His-Lys-Lys (Ac) as substrate incubated for 30 mins in presence of NAD+ by fluorimetric method (reference value: 1666.67 uM)
[5] = compound: N=C(N)NCCC[C@H](NC(=O)[C@H](Cc1c[nH]c2ccccc12)NC(=O)[C@@H](N)CS)C(=O)O; assay: Allosteric activation of SIRT1 (unknown origin) expressed in bacterial expression system assessed as apparent Km for substrate at 40 uM using Fluorophore labeled-Arg-His-Lys-Lys (Ac) as substrate incubated for 30 mins in presence of NAD+ by fluorimetric method (reference value: 507 uM)
[6] = compound: N=C(N)NCCC[C@H](NC(=O)[C@H](Cc1c[nH]c2ccccc12)NC(=O)[C@@H](N)CS)C(=O)O; assay: Allosteric activation of SIRT1 (unknown origin) expressed in bacterial expression system assessed as apparent Km for substrate at 80 uM using Fluorophore labeled-Arg-His-Lys-Lys (Ac) as substrate incubated for 30 mins in presence of NAD+ by fluorimetric method (reference value: 507 uM)
[7] = compound: N=C(N)NCCC[C@H](NC(=O)[C@H](Cc1c[nH]c2ccccc12)NC(=O)[C@@H](N)CS)C(=O)O; assay: Allosteric activation of SIRT1 (unknown origin) expressed in bacterial expression system assessed as apparent Km for substrate at 120 uM using Fluorophore labeled-Arg-His-Lys-Lys (Ac) as substrate incubated for 30 mins in presence of NAD+ by fluorimetric method (reference value: 507 uM)
[8] = compound: N=C(N)NCCC[C@H](NC(=O)[C@H](Cc1c[nH]c2ccccc12)NC(=O)[C@@H](N)CS)C(=O)O; assay: Allosteric activation of SIRT1 (unknown origin) expressed in bacterial expression system assessed as apparent Km for substrate at 160 uM using Fluorophore labeled-Arg-His-Lys-Lys (Ac) as substrate incubated for 30 mins in presence of NAD+ by fluorimetric method (reference value: 507 uM)

B1: NAD-dependent protein deacetylase sirtuin-1 (Homo sapiens), Q96EB6 (protein)
chain: MADEAALALQPGGSPSAAGADREAASSPAGEPLRKRPRRDGPGLERSPGEPGGAAPEREVPAAARGCPGAAAAALWREAEAEAAAAGGEQEAQATAAAGEGDNGPGLQGPSREPPLADNLYDEDDDDEGEEEEEAAAAAIGYRDNLLFGDEIITNGFHSCESDEEDRASHASSSDWTPRPRIGPYTFVQQHLMIGTDPRTILKDLLPETIPPPELDDMTLWQIVINILSEPPKRKKRKDINTIEDAVKLLQECKKIIVLTGAGVSVSCGIPDFRSRDGIYARLAVDFPDLPDPQAMFDIEYFRKDPRPFFKFAKEIYPGQFQPSLCHKFIALSDKEGKLLRNYTQNIDTLEQVAGIQRIIQCHGSFATASCLICKYKVDCEAVRGDIFNQVVPRCPRCPADEPLAIMKPEIVFFGENLPEQFHRAMKYDKDEVDLLIVIGSSLKVRPVALIPSSIPHEVPQILINREPLPHLHFDVELLGDCDVIINELCHRLGGEYAKLCCNPVKLSEITEKPPRTQKELAYLSELPPTPLHVSEDSSSPERTSPPDSSVIVTLLDQAAKSNDDLDVSESKGCMEEKPQEVQTSRNVESIAEQMENPDLKNVGSSTGEKNERTSVAGTVRKCWPNRVAKEQISRRLDGNQYLFLPPNRYIFHGAEVYSDSEDDVLSSSSCGSNSDSGTCQSPSLEEPMEDESEIEEFYNGLEDEPDVPERAGGAGFGTDGDDQEAINEAISVKQEVTDMNYPSNKS
Vmax [1]: 1430 µM | Vmax [2]: 1250 µM | Vmax [3]: 1110 µM | Vmax [4]: 1110 µM | Km [5]: 236 µM | Km [6]: 168 µM | Km [7]: 72 µM | Km [8]: 75 µM
